Results: the supplement of paper PMC12042874
± gives the uncertainty stated by the source.

assay: amyloid nucleation score (Sup35N fusion, yeast selection) (log enrichment); library NNK2; higher = more nucleation; inactive = no reads after selection
Summary of the method: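 The nucleation score is a DiMSum log enrichment of output over input reads, centred on the mode score of non-aggregating sequences. Sequences under 100 input reads were excluded, and reads came from Illumina sequencing of plasmid inserts. Psi-negative yeast expressing Sup35N fused to peptides of 20 random codons were induced with 100 μM copper sulfate for 24 hours and grown 7 days at 30°C on medium lacking adenine and uracil. Random libraries had three technical output replicates.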

In order of rising amyloid nucleation score:
1. ARMIVCPTVFAIPWYNNSFI  -1.47 ± 0.78
2. YLGDTEQECAF  -1.37 ± 0.3
3. FMVDASLNQRMGINQFVCS  -1.34 ± 0.76
4. VRKSFLCCKQMGLLF  -1.14 ± 0.64
5. FCEWGSEYWGNMDCDACDTA  -1.09 ± 0.76
6. YVPYLLTLCCRCSSLGFR  -1.08 ± 1.1
7. GGTQLRTG  -0.961 ± 1.1
8. LRNLS  -0.919 ± 1
9. NCKYVVTMMLTSGLCAENIW  -0.81 ± 1
10. FRLIQWWARWIVFFGSTSLH  -0.804 ± 0.45
11. SGVFAFTKLLNTIEGDFCHR  -0.721 ± 0.64
12. TCLYP  -0.707 ± 0.55
13. SGPLVWLLLWQFNDGLCGWG  -0.656 ± 0.49
14. YGRLRLVA  -0.637 ± 0.54
15. LSVPRIFGSFVWVRQ  -0.633 ± 1.1
16. FSPKKFK  -0.532 ± 1
17. YYISKKSMMMDEVRCWMTWF  -0.524 ± 0.27
18. YFSRWLFFYECKGDNLLRRE  -0.512 ± 0.76
19. FVVWWFLKEMRDSAGKGDEF  -0.49 ± 0.34
20. RYISYITSVSESRQGNRPYG  -0.446 ± 0.28
21. TYQMWLDTE  -0.445 ± 0.39
22. LYFDR  -0.417 ± 1.1
23. CRRCTIGLISDRGVLAAEES  -0.403 ± 0.63
24. DDERYDVPLWSFGVRYYISG  -0.384 ± 0.54
25. LPLWLIDIALFLSFCIVGQS  -0.369 ± 1.1
26. SCCLLPKYELRIIYCASRRK  -0.324 ± 1.1
27. SQITYVFYFRRGFIMLMWWE  -0.323 ± 0.79
28. GAYYSQ  -0.316 ± 0.46
29. TRISMRLWFSGRELIEALKF  -0.29 ± 0.65
30. SSWKCIIYNPQCEVPTGEQE  -0.289 ± 0.49
31. LTPIMAEKVLPYICQLLRGS  -0.228 ± 0.55
32. NFRSVFFAMCRSCVF  -0.145 ± 0.25
33. FCIQK  -0.114 ± 0.55
34. SFDLWLCTRRWLGGAWILL  -0.029 ± 0.65
35. CHKVWSKEDWATVWSVGGLV  -0.02 ± 1.1
36. FWYRAYDLIPVLTAGWRYLF  0.001 ± 0.76
37. LPTIGVWLTRPRVCFLSYSV  0.045 ± 0.63
38. SWLVDPTLGTRLSFTVMYRC  0.053 ± 1.1
39. SVHRERWMFYIFVCTLVVRG  0.056 ± 0.43
40. SLMVQWSTILAHIRHFMTA  0.073 ± 0.63
41. LTVTDG  0.104 ± 0.37
42. IPPNGPVYCRYHNRQVCRAG  0.203 ± 0.34
43. YFSQQSEGSALCVLKHWVKS  0.253 ± 0.42
44. MYNQC  0.271 ± 0.44
45. LVWLKQGGTISMLMTCHLFA  0.477 ± 0.52
46. LRFVEPTTCVWGRDLFGAHS  0.545 ± 0.53
47. QYVMERYWRDWFKRMMLLFS  0.584 ± 0.27
48. LHSYPVKYGSRKDTRAKCGG  0.605 ± 0.29
49. IGTYWYVKLWRYSYVYPYLD  0.665 ± 0.57
50. GLSRVDPWVYQLPSMGSHDS  0.706 ± 0.52
51. NEVTRAWSEFPYFMVSRHMT  0.813 ± 0.47
52. LNSFVPVDSRVVTSAEWYAG  0.889 ± 0.23
53. ASCWTVGQLTHVSVSMWGFI  0.943 ± 0.53
54. KLACVEGTKWAASGIAPNV  0.946 ± 0.2
55. LQASDKGKLLRTIPLRHYVP  1.02 ± 0.33
56. YCANDVVMLSA  1.06 ± 0.17
57. TLFNMMIYSL  1.09 ± 0.54
58. ISEDIIWC  1.24 ± 0.25
59. SSLRKRRLVVRNVAKSRMFL  2.14 ± 0.31
60. HIPRCINLVVRCTVKLVDGS  2.35 ± 0.14
61. SYRNTIWVSINALGVSWEAS  2.52 ± 0.078
62. QWCYSAVYSMLVSKRL  2.68 ± 0.078
63. LLDSPEWWYVLCATNWVYYM  2.88 ± 0.096
64. DTNLFTGGSLSVFYFDDGDK  2.96 ± 0.15
65. VFTSYFLLFICLGYCEFYGD  4.299 ± 0.042
66. IMYLVENMCHDKKFYCSVNL  4.34 ± 0.087
67. LLFSLYDYRQIDFNSGHRHV  4.37 ± 0.056
68. VCLCCYYIYYERFSNGFFLL  5.02 ± 0.058
69. MLQPPPNESVSIILLKGSPA  5.165 ± 0.042
70. MCRRANGRVLGP  5.562 ± 0.042
71. LVQLKRCQMSLWMRHYHRDE  5.951 ± 0.055
72. HVHCEIGFVRLSTRVGRWFG  6.64 ± 0.079
73. TSFQVFINYVSL  7.605 ± 0.046
74. RNCHYYILVTLCNVKNVYL  8.283 ± 0.054

For AVWVRLTFDYWGRCTILGTV, the amyloid nucleation score was “inactive”.
With LTEVIVFYIRYMQARDRLIR the amyloid nucleation score was “inactive”.
In the case of ARFSVILNSIYRFSYLCRRL, the amyloid nucleation score is reported as “inactive”.
In the case of WVLCRRNLLGH, the amyloid nucleation score is reported as “inactive”.
For KPLNVHELIVSYEYYLLFCQ, the amyloid nucleation score was “inactive”.
With LLCGRYGMECFTRA the amyloid nucleation score was “inactive”.
With FGGRFIQSRVSMR the amyloid nucleation score was “inactive”.
With LGFSGNI the amyloid nucleation score was “inactive”.
For SRRFFVCL, the amyloid nucleation score was “inactive”.
For GDDLPWWCISIWFFLSWLEN, the amyloid nucleation score was “inactive”.
In the case of YVYKCLQSQFFNALVTMISL, the amyloid nucleation score is reported as “inactive”.
